The values below come from publication doi:10.1101/2021.05.27.445985.

One may read the Kd as the concentration at which binding is half-saturated. High values mean a looser complex, low ones a tighter complex.

For the experiment, the target named is Cy5-labeled human neutrophil peptide 1 (HNP1) (human). The experiment is described as follows: fluorescence polarisation.

“Bovine serum albumin (from UniProt P02769 25-607) (natural protein)” showed a Kd of 3.4 µM.
